Measurements published in patent US20260274955A1 (JANUX THERAPEUTICS, published 2026).

target: T1, anti-CD28 Fab (SEQ ID NOs: 202, 203); test: phage binding ELISA on captured biotinylated Fab;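 note: clonal phage supernatants added to wells preincubated with CD28 antigen or blocking buffer only, bound phage detected by ELISA with horseradish-conjugated anti-M13 antibody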
T1 construct: biotinylated and captured on neutravidin coated plates in the phage ELISA
T1 sequence (VH, as listed by the source, chain 1 of 2): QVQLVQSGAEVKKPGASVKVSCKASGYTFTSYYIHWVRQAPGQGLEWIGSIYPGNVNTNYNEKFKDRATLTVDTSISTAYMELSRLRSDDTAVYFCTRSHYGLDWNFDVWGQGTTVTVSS
T1 sequence (VL, as listed by the source, chain 2 of 2): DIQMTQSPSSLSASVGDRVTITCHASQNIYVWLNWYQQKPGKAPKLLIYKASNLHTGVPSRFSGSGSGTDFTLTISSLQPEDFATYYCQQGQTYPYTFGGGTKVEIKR
Protocol: After panning, phage infected bacteria were plated out and colonies picked into 96 well blocks. Clonal phage was then amplified and separated from bacterial cells via centrifugation.
Clonal phage were harvested as crude supernatants and screened via standard ELISAs. […] Prior to the addition of clonal phage, wells were incubated with blocking buffer and CD28 antigen or blocking buffer alone. Without washing or aspirating, clonal phage supernatants were then added to the wells and incubated for a short time. Wells were then washed followed by detection of bound phage using a horse radish conjugated anti-M13 antibody. Clonal phage of interest were then sent for sequence analysis.

| Binder | Anti-CD28 Fab (SEQ ID NOs: 202, 203) signal |
| --- | --- |
| TCSAGAHYPWPICL [Phage-900] | 1.78 |
| RCAAGASYPWPPCL [Phage-925] | 2.25 |
| MCAEFFNYPWPLCL [Phage-946] | 2.11 |
| LCAEFFNYPWPLCL [Phage-975] | 1.98 |
| TCSAGATWAWPLCF [Phage-902] | 2.31 |
| WCKPGAPYKWPPCF [Phage-942] | 2.14 |
| TCAAGAHYPWPACL [Phage-904] | 1.92 |
| HCAAGAHYPWPACL [Phage-968] | 2 |
| MCSAGAMYKWPLCL [Phage-912] | 2.32 |
| MCSAGAMYSWPLCL [Phage-918] | 2.29 |
| SCSAGAHYPWPQCF [Phage-898] | 1.16 |
| MCAAGANYPWPQCL [Phage-920] | 2.28 |
| TCAAGAMWAWPVCL [Phage-911] | 2.32 |
| TCAAGAMWHWPVCL [Phage-962] | 2.03 |
| TCAAGATYEWPACL [Phage-947] | 2.09 |
| TCSAGATYAWPFCL [Phage-913] | 2.31 |
| TCKAGATYLWPFCL [Phage-926] | 2.23 |
| TCSAGATYEWPRCL [Phage-899] | 1.84 |
| SCKPGVANYWPWCL [Phage-917] | 2.29 |
| TCSAGATWSWPMCL [Phage-921] | 2.26 |
| LCSAGAMYPWPTCL [Phage-922] | 2.25 |
| LCSAGAMWPWPTCL [Phage-908] | 2.39 |

| Binder | Anti-CD28 Fab (SEQ ID NOs: 202, 203) signal |
| --- | --- |
| LCSAGAMYSWPTCL [Phage-909] | 2.39 |
| MCSAGAMYPWPTCL [Phage-959] | 2.04 |
| LCAAGATYPWPLCL [Phage-894] | 2.39 |
| LCAAGATYPWPTCL [Phage-897] | 1.71 |
| LCAAGFKYPWPLCL [Phage-964] | 2.02 |
| LCAAGATYPWPFCL [Phage-919] | 2.28 |
| LCAAGATYAWPLCL [Phage-945] | 2.13 |
| LCAAGASYPWPTCL [Phage-967] | 2 |
| MCAAGATYPWPACL [Phage-914] | 2.3 |
| YCAAGATYPWPLCL [Phage-952] | 2.08 |
| MCAAGATYPWPLCL [Phage-970] | 1.99 |
| TCAAGAAWGWPLCF [Phage-893] | 2.3 |
| TCSAGAAYPWPLCL [Phage-895] | 2.36 |
| TCAAGAHYSWPACF [Phage-923] | 2.25 |
| SCAAGAMWPWPVCV [Phage-915] | 2.29 |
| TCAAGATYLWPTCL [Phage-903] | 1.68 |
| TCAAGAMYTWPLCF [Phage-943] | 2.14 |
| TCSAGATWTWPQCL [Phage-944] | 2.14 |
| TCSAGAAYSWPACF [Phage-896] | 1.89 |
| TCAAGATYPWPSCL [Phage-924] | 2.25 |
| GCAAGATYPWPSCL [Phage-957] | 2.05 |
| SCSAGAAYYWPWCL [Phage-901] | 1.9 |
